B1: AU-rich RNA 24 nt (ssRNA)
RNA: AUUAUUUAUUUAUUAUUAUUUAUU
B2: 37 nt polyA RNA (ssRNA)
RNA: AAAAAAAAAAAAAAAAAAAAAAAAAAAAAAAAAAAAA

Key:
Test in all cases: fluorescence polarization
Exo10(6exo-) Lasso = Exo10(6exo-) Lasso (Saccharomyces cerevisiae, UniProt Q12149;P46948;Q12277;P25359;Q05636;P53256;P48240;P38792;Q08285;P53859 …, D238N)
[1] = biological target: T1, Rrp6 EARless, catalytically dead (Saccharomyces cerevisiae, UniProt Q12149 128-733, D238N;del517-617)
T1 sequence: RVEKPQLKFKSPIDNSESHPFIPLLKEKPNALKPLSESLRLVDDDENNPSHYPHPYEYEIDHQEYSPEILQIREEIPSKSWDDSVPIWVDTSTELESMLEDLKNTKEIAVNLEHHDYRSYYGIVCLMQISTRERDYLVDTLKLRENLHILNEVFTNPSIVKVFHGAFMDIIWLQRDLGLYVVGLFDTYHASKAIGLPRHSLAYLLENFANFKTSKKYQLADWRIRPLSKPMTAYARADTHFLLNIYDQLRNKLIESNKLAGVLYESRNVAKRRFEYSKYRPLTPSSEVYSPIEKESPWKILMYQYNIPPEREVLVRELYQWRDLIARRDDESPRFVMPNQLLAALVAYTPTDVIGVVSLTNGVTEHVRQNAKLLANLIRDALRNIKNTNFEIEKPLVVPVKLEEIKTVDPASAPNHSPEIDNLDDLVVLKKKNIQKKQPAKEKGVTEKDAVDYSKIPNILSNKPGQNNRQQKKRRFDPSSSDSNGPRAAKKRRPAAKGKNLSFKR

[2] = biological target: T2, Rrp6 Lassoless, catalytically dead (Saccharomyces cerevisiae, UniProt Q12149 128-634, D238N)
T2 sequence: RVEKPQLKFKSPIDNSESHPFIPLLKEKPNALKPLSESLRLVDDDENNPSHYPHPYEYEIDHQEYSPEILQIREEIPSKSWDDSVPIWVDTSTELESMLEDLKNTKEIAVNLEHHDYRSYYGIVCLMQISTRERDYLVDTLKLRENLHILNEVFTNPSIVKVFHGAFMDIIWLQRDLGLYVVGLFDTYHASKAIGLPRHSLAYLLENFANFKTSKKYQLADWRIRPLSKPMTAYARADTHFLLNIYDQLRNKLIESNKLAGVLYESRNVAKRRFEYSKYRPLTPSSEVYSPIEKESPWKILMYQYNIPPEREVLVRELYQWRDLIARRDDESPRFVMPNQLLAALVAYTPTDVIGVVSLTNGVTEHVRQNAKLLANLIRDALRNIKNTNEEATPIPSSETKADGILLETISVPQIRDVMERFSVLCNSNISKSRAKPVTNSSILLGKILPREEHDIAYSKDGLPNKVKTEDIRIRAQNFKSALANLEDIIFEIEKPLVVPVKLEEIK

[3] = biological target: T3, Rrp6 Lasso (CTD intact), catalytically dead (Saccharomyces cerevisiae, UniProt Q12149 128-733, D238N)
T3 sequence: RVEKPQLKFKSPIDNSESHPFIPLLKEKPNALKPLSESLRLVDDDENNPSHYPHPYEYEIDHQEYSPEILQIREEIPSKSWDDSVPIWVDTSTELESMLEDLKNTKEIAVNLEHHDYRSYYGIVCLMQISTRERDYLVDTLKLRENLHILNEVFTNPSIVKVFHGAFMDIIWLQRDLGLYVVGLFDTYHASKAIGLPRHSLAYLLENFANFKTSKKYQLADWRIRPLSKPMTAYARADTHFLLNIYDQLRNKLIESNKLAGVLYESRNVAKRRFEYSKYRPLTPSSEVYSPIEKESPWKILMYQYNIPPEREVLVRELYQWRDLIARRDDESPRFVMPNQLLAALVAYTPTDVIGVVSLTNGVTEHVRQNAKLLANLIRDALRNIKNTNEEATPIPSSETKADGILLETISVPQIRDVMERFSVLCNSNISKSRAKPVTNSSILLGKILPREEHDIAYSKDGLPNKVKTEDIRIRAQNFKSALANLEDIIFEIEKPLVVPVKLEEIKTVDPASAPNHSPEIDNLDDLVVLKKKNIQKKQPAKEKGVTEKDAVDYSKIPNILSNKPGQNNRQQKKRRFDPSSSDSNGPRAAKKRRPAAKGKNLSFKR

[4] = biological target: Exo11(44exo-/6exo-) Lassoless (Saccharomyces cerevisiae, UniProt Q12149;Q08162;P46948;Q12277;P25359;Q05636;P53256;P48240;P38792;Q08285;P53859 …, D238N;D551N)
Exo10(6exo-) Lassoless = Exo10(6exo-) Lassoless (Saccharomyces cerevisiae, UniProt Q12149;P46948;Q12277;P25359;Q05636;P53256;P48240;P38792;Q08285;P53859 …, D238N)
[5] = biological target: Exo10(6exo-) Partial lasso (Saccharomyces cerevisiae, UniProt Q12149;P46948;Q12277;P25359;Q05636;P53256;P48240;P38792;Q08285;P53859 …, D238N)

Binder | binding result (Exo10(6exo-) Lasso) | binding signal [1] | binding signal [2] | binding signal [3] | binding signal [4] [fold weaker than P9] | binding signal (Exo10(6exo-) Lassoless) [fold weaker than P6] | binding signal [5] [fold weaker than P6]
B1 | binds | – | – | – | – | – | –
B2 | – | 6 fold tighter than lassoless (P4) | 4 fold weaker than lasso-containing (P3) | 4 fold tighter than lassoless (P4) | 6 | > 15 | > 15
